Data taken from patent publication US20210115102.

Chain of ALU30-14 (chain, as listed by the source): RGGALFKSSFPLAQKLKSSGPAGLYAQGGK
Chain of Factor Xa, recombinant human (chain): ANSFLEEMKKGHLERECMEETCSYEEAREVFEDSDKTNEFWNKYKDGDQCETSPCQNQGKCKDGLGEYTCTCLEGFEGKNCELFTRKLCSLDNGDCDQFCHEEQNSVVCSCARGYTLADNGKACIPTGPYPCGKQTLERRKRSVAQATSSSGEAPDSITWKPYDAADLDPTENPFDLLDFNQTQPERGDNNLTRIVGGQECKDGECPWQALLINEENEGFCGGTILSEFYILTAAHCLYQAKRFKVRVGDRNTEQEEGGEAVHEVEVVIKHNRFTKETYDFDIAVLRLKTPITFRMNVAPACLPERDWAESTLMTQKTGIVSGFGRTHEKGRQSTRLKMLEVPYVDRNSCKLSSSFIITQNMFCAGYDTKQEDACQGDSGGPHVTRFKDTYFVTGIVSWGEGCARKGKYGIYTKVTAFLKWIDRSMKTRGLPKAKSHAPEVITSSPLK
Chain of ALU30-12 (chain, as listed by the source): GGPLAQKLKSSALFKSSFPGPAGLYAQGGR
Chain of ALU30-1 (chain, as listed by the source): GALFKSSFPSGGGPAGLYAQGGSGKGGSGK
Chain of ALU30-9 (chain, as listed by the source): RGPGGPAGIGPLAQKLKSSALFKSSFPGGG
Chain of Hepsin, recombinant human (chain, as listed by the source): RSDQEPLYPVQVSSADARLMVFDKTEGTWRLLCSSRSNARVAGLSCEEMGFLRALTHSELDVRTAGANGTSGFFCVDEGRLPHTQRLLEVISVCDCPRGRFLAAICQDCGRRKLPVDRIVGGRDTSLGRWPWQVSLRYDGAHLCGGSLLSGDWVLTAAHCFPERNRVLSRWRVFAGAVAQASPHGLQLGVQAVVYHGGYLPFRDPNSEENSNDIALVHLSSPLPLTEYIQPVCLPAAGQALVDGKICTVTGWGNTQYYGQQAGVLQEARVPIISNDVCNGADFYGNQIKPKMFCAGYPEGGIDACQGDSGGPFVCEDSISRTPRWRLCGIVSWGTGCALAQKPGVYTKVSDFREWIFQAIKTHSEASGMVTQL
Chain of ALU30-15 (chain, as listed by the source): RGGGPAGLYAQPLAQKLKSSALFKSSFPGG
Chain of MMP-9, recombinant human (chain, as listed by the source): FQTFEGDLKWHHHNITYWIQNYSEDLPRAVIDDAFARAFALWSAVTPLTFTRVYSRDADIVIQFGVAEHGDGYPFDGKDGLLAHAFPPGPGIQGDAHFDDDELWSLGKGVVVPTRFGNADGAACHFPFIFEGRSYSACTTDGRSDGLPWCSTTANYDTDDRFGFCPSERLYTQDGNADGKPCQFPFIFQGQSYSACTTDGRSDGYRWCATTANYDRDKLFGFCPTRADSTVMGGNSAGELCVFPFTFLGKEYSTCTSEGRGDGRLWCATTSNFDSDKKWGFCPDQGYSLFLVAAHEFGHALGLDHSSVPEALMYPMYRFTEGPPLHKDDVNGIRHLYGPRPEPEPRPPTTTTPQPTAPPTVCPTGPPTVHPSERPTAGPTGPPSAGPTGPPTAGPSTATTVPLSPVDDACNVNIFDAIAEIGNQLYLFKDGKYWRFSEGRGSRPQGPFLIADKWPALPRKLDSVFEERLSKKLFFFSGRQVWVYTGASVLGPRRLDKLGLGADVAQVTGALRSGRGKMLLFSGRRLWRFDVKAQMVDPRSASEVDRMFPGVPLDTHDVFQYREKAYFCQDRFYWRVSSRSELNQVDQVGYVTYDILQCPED
Chain of ALU30-19 (chain, as listed by the source): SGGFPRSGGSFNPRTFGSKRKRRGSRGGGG
Chain of ALU30-8 (chain, as listed by the source): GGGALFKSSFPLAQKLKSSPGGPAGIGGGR
Chain of ALU30-13 (chain, as listed by the source): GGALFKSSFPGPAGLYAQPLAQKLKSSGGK
Chain of ALU30-18 (chain, as listed by the source): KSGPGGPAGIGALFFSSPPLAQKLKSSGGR
Chain of ALU30-17 (chain, as listed by the source): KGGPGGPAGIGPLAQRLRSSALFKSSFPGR
Chain of ALU30-2 (chain, as listed by the source): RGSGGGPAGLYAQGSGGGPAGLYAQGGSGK
Chain of ALU30-10 (chain, as listed by the source): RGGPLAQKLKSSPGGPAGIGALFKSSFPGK
Chain of ALU30-5 (chain, as listed by the source): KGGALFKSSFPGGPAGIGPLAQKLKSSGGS
Chain of ALU30-7 (chain, as listed by the source): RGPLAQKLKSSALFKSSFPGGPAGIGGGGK
Chain of ALU30-6 (chain, as listed by the source): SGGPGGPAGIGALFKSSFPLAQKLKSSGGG
Chain of ALU30-3 (chain, as listed by the source): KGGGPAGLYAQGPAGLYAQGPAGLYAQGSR
Chain of ALU30-16 (chain, as listed by the source): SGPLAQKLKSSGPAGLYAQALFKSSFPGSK
Chain of ALU30-4 (chain, as listed by the source): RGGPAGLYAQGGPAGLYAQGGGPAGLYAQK
Chain of ALU30-11 (chain, as listed by the source): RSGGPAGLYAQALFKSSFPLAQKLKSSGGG

Substance	30-mer substrate degradation (MSP-MS) (ALU30-5)	30-mer substrate degradation (MSP-MS) (ALU30-12)	30-mer substrate degradation (MSP-MS) (ALU30-13)	30-mer substrate degradation (MSP-MS) (ALU30-10)	30-mer substrate degradation (MSP-MS) (ALU30-6)	30-mer substrate degradation (MSP-MS) (ALU30-8)	30-mer substrate degradation (MSP-MS) (ALU30-7)	30-mer substrate degradation (MSP-MS) (ALU30-1)	30-mer substrate degradation (MSP-MS) (ALU30-15)	30-mer substrate degradation (MSP-MS) (ALU30-14)	30-mer substrate degradation (MSP-MS) (ALU30-9)	30-mer substrate degradation (MSP-MS) (ALU30-17)	30-mer substrate degradation (MSP-MS) (ALU30-18)	30-mer substrate degradation (MSP-MS) (ALU30-19)	also measured
Factor Xa, recombinant human	the only library peptide with significant cleavage was Alu30-5, cleaved at the CTSL1_1 motif ALFKS|SFP (SEQ ID NO: 198), upstream of a FAPα_1 motif	all other peptides bearing a CTSL1_1 motif were cleaved by Factor Xa at either ALF|KSSFP (SEQ ID NO: 198) or ALFKS|SFP (SEQ ID NO: 198)	all other peptides bearing a CTSL1_1 motif were cleaved by Factor Xa at either ALF|KSSFP (SEQ ID NO: 198) or ALFKS|SFP (SEQ ID NO: 198)	all other peptides bearing a CTSL1_1 motif were cleaved by Factor Xa at either ALF|KSSFP (SEQ ID NO: 198) or ALFKS|SFP (SEQ ID NO: 198)	all other peptides bearing a CTSL1_1 motif were cleaved by Factor Xa at either ALF|KSSFP (SEQ ID NO: 198) or ALFKS|SFP (SEQ ID NO: 198)	all other peptides bearing a CTSL1_1 motif were cleaved by Factor Xa at either ALF|KSSFP (SEQ ID NO: 198) or ALFKS|SFP (SEQ ID NO: 198)	all other peptides bearing a CTSL1_1 motif were cleaved by Factor Xa at either ALF|KSSFP (SEQ ID NO: 198) or ALFKS|SFP (SEQ ID NO: 198)	all other peptides bearing a CTSL1_1 motif were cleaved by Factor Xa at either ALF|KSSFP (SEQ ID NO: 198) or ALFKS|SFP (SEQ ID NO: 198)	all other peptides bearing a CTSL1_1 motif were cleaved by Factor Xa at either ALF|KSSFP (SEQ ID NO: 198) or ALFKS|SFP (SEQ ID NO: 198)	all other peptides bearing a CTSL1_1 motif were cleaved by Factor Xa at either ALF|KSSFP (SEQ ID NO: 198) or ALFKS|SFP (SEQ ID NO: 198)	all other peptides bearing a CTSL1_1 motif were cleaved by Factor Xa at either ALF|KSSFP (SEQ ID NO: 198) or ALFKS|SFP (SEQ ID NO: 198)	all other peptides bearing a CTSL1_1 motif were cleaved by Factor Xa at either ALF|KSSFP (SEQ ID NO: 198) or ALFKS|SFP (SEQ ID NO: 198)	The peptide with the motif CTSL1_2 was cleaved at the lowest efficiency.	Peptide Alu30-19 with this motif was completely degraded before the 5 min time point.	30-mer substrate degradation (MSP-MS) (ALU30-16): all other peptides bearing a CTSL1_1 motif were cleaved by Factor Xa at either ALF|KSSFP (SEQ ID NO: 198) or ALFKS|SFP (SEQ ID NO: 198); 30-mer substrate degradation (MSP-MS) (ALU30-11): all other peptides bearing a CTSL1_1 motif were cleaved by Factor Xa at either ALF|KSSFP (SEQ ID NO: 198) or ALFKS|SFP (SEQ ID NO: 198)
Hepsin, recombinant human												The ADAM17_1 motif was less efficiently cleaved than ADAM17_2	the alternate CTSL1_2 motif was also cleaved at a much slower rate than CTSL1_1	Alu30-19 was cleaved at all three motifs within the first 15 min of the reaction	apparent catalytic efficiency (ALU30-12): The authentic peptide Alu30-19, as well as the top cleaved peptides Alu30-8,-9, -12, and -14 all had apparent catalytic efficiencies on the same order of 10^5 M^-1s^-1.; apparent catalytic efficiency (ALU30-8): The authentic peptide Alu30-19, as well as the top cleaved peptides Alu30-8,-9, -12, and -14 all had apparent catalytic efficiencies on the same order of 10^5 M^-1s^-1.; cleavage efficiency of 30-mer library peptides (ALU30-15): it had slightly higher hepsin susceptibility; apparent catalytic efficiency (ALU30-14): The authentic peptide Alu30-19, as well as the top cleaved peptides Alu30-8,-9, -12, and -14 all had apparent catalytic efficiencies on the same order of 10^5 M^-1s^-1.; apparent catalytic efficiency (ALU30-9): The authentic peptide Alu30-19, as well as the top cleaved peptides Alu30-8,-9, -12, and -14 all had apparent catalytic efficiencies on the same order of 10^5 M^-1s^-1.; apparent catalytic efficiency (ALU30-19): The authentic peptide Alu30-19, as well as the top cleaved peptides Alu30-8,-9, -12, and -14 all had apparent catalytic efficiencies on the same order of 10^5 M^-1s^-1.
MMP-9, recombinant human	The FAPα_1 motif was not cleaved by MMP9, however, when followed either by the ADAM17_2 motif or the spacing residues GG.	The slowest peptides bear the MMP14_1 motif near the C-terminus of the 30-mer peptide.	The next most efficient substrates contained the pair of motifs where MMP14_1 was followed directly by ADAM17_2.	the FAPα_1 motif was also cleaved within the peptides bearing FAPα_1 directly followed by the CTSL1_1 motif at PGGPAG|GALF (SEQ ID NO: 247); these were lower efficiency cleavages	the FAPα_1 motif was also cleaved within the peptides bearing FAPα_1 directly followed by the CTSL1_1 motif at PGGPAG|GALF (SEQ ID NO: 247); these were lower efficiency cleavages	The FAPα_1 motif was not cleaved by MMP9, however, when followed either by the ADAM17_2 motif or the spacing residues GG.	The FAPα_1 motif was not cleaved by MMP9, however, when followed either by the ADAM17_2 motif or the spacing residues GG.	The single or double MMP14_1 motif-bearing peptides were next in the order.	The next most efficient substrates contained the pair of motifs where MMP14_1 was followed directly by ADAM17_2.	The slowest peptides bear the MMP14_1 motif near the C-terminus of the 30-mer peptide.	The FAPα_1 motif was not cleaved by MMP9, however, when followed either by the ADAM17_2 motif or the spacing residues GG.				30-mer substrate degradation (MSP-MS) (ALU30-2): The single or double MMP14_1 motif-bearing peptides were next in the order.; product formation at individual bonds (MSP-MS) (ALU30-2): the specific cleavage of the Alu30-2 peptide was more efficient than the Alu30-1 peptide; 30-mer substrate degradation (MSP-MS) (ALU30-4): The most efficient MMP9 substrates were those that bore three-repeats of the MMP14_1 motif.; product formation at individual bonds (MSP-MS) (ALU30-1): the specific cleavage of the Alu30-2 peptide was more efficient than the Alu30-1 peptide; 30-mer substrate degradation (MSP-MS) (ALU30-3): The most efficient MMP9 substrates were those that bore three-repeats of the MMP14_1 motif.
